Experimental data: patent US20090068110A1, “ANTIBODIES TO INSULIN-LIKE GROWTH FACTOR RECEPTOR” (Genentech, Inc., priority 2006, published 2009)

What was measured:
DU145 = assay: cell viability assay, DU145; format: cell-based, human; design: key: +: growth inhibition; −: no or weak effect; details: DU145, Prostate Adenocarcinoma
Experimental: (§1) The different cell lines were cultured in their respective culture media at 37° C. in a humidified atmosphere of 5% CO2. Subsequently, cells were detached from tissue-culture flasks using the cell-dissociation solution, TRIPLE SELECT™ solution (InVitrogen, Carlsbad, Calif., USA), and centrifuged at 1000 rpm for five minutes. Detached cells were washed once with PBS, counted, and seeded in 96-well plates (Corning, N.Y., USA) at 2000 cells per well in 100 μL of culture media. After an overnight incubation at 37° C. in a humidified atmosphere of 5% CO2, the cell-culture medium was replaced with 50 μL of starvation medium consisting of serum-free RPMI 1640™ medium without phenol red. The cells were then starved for five hours in the incubator before addition of 25 μL of each anti-IGF-1R monoclonal antibody at various dilutions in serum-free RPMI 1640™ phenol red-free media. Later, 25 μL of phenol red-free RPMI 1640™ media supplemented with 4% of fetal bovine serum (FBS) (Sigma) with or without 4 ng/ml of human recombinant IGF-I were added on top of the 50 μL of antibody. The cells were then placed at 37° C. with 5% CO2 for 5 to 6 days. At the end of the assay, cell viability was measured using the […]-GLO® kit according to the manufacturer's instructions (Promega, Madison, Wis., USA).

HMEC = assay: cell viability assay, HMEC; format: cell-based; design: key: +: growth inhibition; −: no or weak effect; details: Human Mammary Epithelial Cell
Experimental: as §1

KM12 = assay: cell viability assay, KM12; format: cell-based, human; design: key: +: growth inhibition; −: no or weak effect; details: KM12, Colorectal Adenocarcinoma
Experimental: as §1

DLD1 = assay: cell viability assay, DLD1; format: cell-based, human; design: key: +: growth inhibition; −: no or weak effect; details: DLD1, Colorectal Adenocarcinoma
Experimental: as §1

MCF7 cells = assay: cell viability assay ([…]-GLO), MCF7; format: cell-based, human; design: key to Effect of IR3, 6D2, 9F2, and 10H5: +: growth inhibition; −: no or weak effect; details: MCF7, Breast Adenocarcinoma
Experimental: as §1
For the cell viability assay, MCF7 cells were seeded onto 96-well plates at 2000 cells/well and incubated overnight at 37° C. in a humidified atmosphere of 5% CO2/95% air in RPMI 1640™ medium supplemented with 10% FBS (Sigma, St. Louis, Mo.) and 1% GLUTAMAX™ reagent (Promega, Madison, Wis.). The next day cells were starved in serum-free RPMI 1640™ medium (phenol red-free) for five hours followed by addition of serially diluted human chimeric versions of 9F2, 2B4, and 10H5, as well as h10H5.vX, for one hour. Subsequently, phenol red-free PRMI 1640™ medium supplemented with FBS or IGF-I was added to reach a final concentration of 1% FBS and 1 ng/mL IGF-I. Cells were then incubated with continuous IGF-1R antibody exposure. After five days, the cell viability was then determined using a […]-GLO™ kit (Promega, Madison, Wis.) according to the manufacturer's instructions.

PC3 = assay: cell viability assay, PC3; format: cell-based, human; design: key: +: growth inhibition; −: no or weak effect; details: PC3, Prostate Adenocarcinoma
Experimental: as §1

T47D = assay: cell viability assay, T47D; format: cell-based, human; design: key: +: growth inhibition; −: no or weak effect; details: Breast Ductal Carcinoma
Experimental: as §1

HELA = assay: cell viability assay, HELA; format: cell-based, human; design: key: +: growth inhibition; −: no or weak effect; details: Cervix Adenocarcinoma
Experimental: as §1

SJCRH30 = assay: cell viability assay, SJCRH30; format: cell-based, human; design: key: +: growth inhibition; −: no or weak effect; details: SJCRH30, Rhabdomyosarcoma
Experimental: as §1

IGF-1R = IGF-1R (Homo sapiens, UniProt P08069); assay: BIACORE surface-plasmon resonance, human IGF-1R; format: binding; design: containing the extracellular domain (ECD, amino acids 1-902) tagged with 10 or 12 histidine residues at the carboxyl terminus; His10 or His12 (C); made in house; host or cells: CHO cells; details: affinity measurements, FIG. 14
Experimental: Binding affinities of antibodies to IGF-1R were determined by surface-plasmon resonance measurements on a BIACORE™ 3000 instrument (BIAcore, Inc.). Human IGF-1R-ECD was immobilized at a density of about 500 RU on the flow cells of a PIONEER™ CM5 sensor chip. Immobilization was achieved by random coupling through amino groups using a protocol provided by the manufacturer. Sensorgrams were recorded for binding of anti-IGF-1R Fab or IgG to these surfaces by injection of a series of solutions ranging from 500 nM to 3.1 nM and 250 nM to 0.78 nM in 2-fold increments, respectively. The signal from the reference cell was subtracted from the observed sensorgram. Kinetic constants were calculated by nonlinear regression analysis of the data according to a 1:1 Languir binding model using software supplied by the manufacturer. […]
Binding affinities of selected antibodies to IGF-1R were determined by surface plasmon resonance measurements on a BIACORE™ 3000 instrument (BIAcore, Inc.). […] Sensorgrams were recorded for binding of anti-IGF-1R Fab or IgG to these surfaces by injection of a series of solutions ranging from 500 nM to 3.1 nM and 250 nM to 0.78 nM in two-fold increments, respectively. […] Kinetic constants were calculated by non-linear regression analysis of the data according to a 1:1 Languir binding model using software supplied by the manufacturer.

B1: 10H5: mouse monoclonal anti-IGF-1R antibody from hybridoma 10H5.3.4, ATCC PTA-7007 (antibody, V domains shown)
VH: QVQLQQPGAELVKPGASVTLSCKASGYTFTRFWIHWVKQRPGQGLEWIGEINPSNGRTNYNENFKNKATLTVDTSSSTAYMQLSSLTSEVSVVYYCARGGRLDQWGQGTT
VL: DIVMTQSQKFMSTSLGDRVSVTCKASQNVGSNVAWYQQKPGQSPEALIYSASYRYSGVPDRFTGSGSGTDFTLTISNVQSEDLAEYFCHQYNNYPYTFGGGTKVEIKR
+: Effect of IR3, 6D2, 9F2, and 10H5 (MCF7 cells) | Effect of IR3, 6D2, 9F2, and 10H5 (HELA) | Effect of IR3, 6D2, 9F2, and 10H5 (SJCRH30)
strong binding to human IGF-1R: binding to human IGF-1R (IGF-1R)
−: Effect of IR3, 6D2, 9F2, and 10H5 (DU145) | Effect of IR3, 6D2, 9F2, and 10H5 (HMEC) | Effect of IR3, 6D2, 9F2, and 10H5 (KM12) | Effect of IR3, 6D2, 9F2, and 10H5 (DLD1) | Effect of IR3, 6D2, 9F2, and 10H5 (PC3) | Effect of IR3, 6D2, 9F2, and 10H5 (T47D)

B2: 9F2: mouse monoclonal anti-IGF-1R antibody from hybridoma 9F2.6.2, ATCC PTA-7018 (antibody, V domains shown)
VH: QIQLVQSGPELKKPGETVKISCKASGYTLANYGMNWVKQAPGKGFKWMGWINTNTGKPTYSDEFKGRFVFSLETSASTAYLLINNLSNEDTATYFCARSIYYYGSRYFNVWGAGTT
VL: DIQMTQSTSSLSASLGDRVTISCRASQDINNYLTWYQQKPDGTVKLLIYYTSRLHSGVPSRFSGSGSGTDYSLTITNLEQEDFATYFCQQGNTLPWTFGEGTKVEIKR
strong binding to human IGF-1R: binding to human IGF-1R (IGF-1R)
−: Effect of IR3, 6D2, 9F2, and 10H5 (DU145) | Effect of IR3, 6D2, 9F2, and 10H5 (HMEC) | Effect of IR3, 6D2, 9F2, and 10H5 (KM12) | Effect of IR3, 6D2, 9F2, and 10H5 (DLD1) | Effect of IR3, 6D2, 9F2, and 10H5 (PC3) | Effect of IR3, 6D2, 9F2, and 10H5 (T47D)
+: Effect of IR3, 6D2, 9F2, and 10H5 (MCF7 cells) | Effect of IR3, 6D2, 9F2, and 10H5 (HELA) | Effect of IR3, 6D2, 9F2, and 10H5 (SJCRH30)
